# According to the RNAGym collection of RNA variant scans (doi:10.1073/pnas.2313332121):
# B1: TPR t1 (parent)
# chain: GACCAAUCUGCCCUCAGAGCUCGAGAACAUCUUCGGAUGCAGAGGAGGCAGGCUUCGGUGGCGCGAUAGCGCCAACGUCCUCAACCUCCAAUGCAUCCCACCACAUGAUGAUGCCUGAAGAGCCUUGGUUUUUUG
# Variants of: B1
# Assay: polymerase ribozyme fitness, log enrichment relative to wild type (log ratio); higher = more active; in vitro selection for triplet polymerase activity
# Method in brief: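 A heterodimeric triplet polymerase ribozyme had each of its subunits mutagenized by PCR into a library, which was transcribed. One round of in vitro selection, done in triplicate, annealed each library with a biotinylated primer, its partner subunit and triplets, then incubated it frozen at −7 °C before gel excision of extended constructs, streptavidin-bead capture and RT-PCR. Fitness is the logarithm of genotype enrichment relative to wild-type enrichment, based on Illumina sequencing of inputs and outputs and inverse-variance-weighted replicate averages. A base-2 logarithm is used, and genotypes were kept only with ≥10 input reads and ≥1 read per output.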
row,Variant,polymerase ribozyme fitness (log ratio)
1,A5G C49G G127C G128A,-2.99
2,A5G U33A C124U,-3.02
3,A5U G52C C73A C101U U106A U109C G135U,-5.42
4,A5G G60A G117A G135C,-0.941
5,C4U G52C,-0.368
6,A5G G45A G69U C104A,-1.05
7,A5U A29U,-1.95
8,A5G C88G,-1.27
9,C4G U125G,0.0157
10,C4G C13U C53U C115G A121U,0.995
11,C4U A6U G45A C80U C101A,-3.66
12,A5U A37G C79G,-1.97
13,C4G G63U,-1.88
14,A6C A24G A37U G48C G69C C79G C85G C101A C124U,-5.82
15,A5C U14C U54A C88U C124A,1.25
16,C4G U129C,-1.99
17,C4U C49U U78A,-1.36
18,C4G C86A,-2.95
19,A5G G63C,-0.273
20,A5G G63U,-0.893
21,A5U U38A G42U C72U A74U C85A C101A,-5.64
22,A5U A18C G57U,-2.21
23,A5U C49A,-2.06
24,A5C G35U C56U G63A C70U U109A G117C U125G U130A,-6.63

row,Variant,polymerase ribozyme fitness (log ratio)
1,A5U C28G U96A C114U,-5.96
2,A5C C62U C72G C101G U106G U129C,-5.17
3,C4G C97A,-5.92
4,C4U C40U,-1.42
5,A5C U55G,-0.672
6,A5C G69U C72U C79A U92A,-3.86
7,A5C U9G C15G A43U A95U G110U,-4.99
8,C4U G35U C62U C98A C123G,-2.75
9,C4G C15A A16U C53A U78C C115U,-3.67
10,C4G G48U C70U,-3.27
11,A5U C11U U54A C89A,-2.83
12,A5G C53U G71A G113A,-2.7
13,A5U C56G C114U,-4.21
14,A5U C114A,-1.69
15,A5U G44C C73U,-1.65
16,A5U A41C U55C U59C C82G G120C U125A,-2.81
17,A5G G63A U67G U96A C123U,-5.12
18,A5U G60U,-0.228
19,A5C G69A U129A,-4.05
20,C4U C20A G120U,-3.69
21,A5C C94U G110A,-2.08
22,C4G G39U,-3.24
23,A5U C53U U92A G113U,-4.65
24,C4U G45U,-1.35

row,Variant,polymerase ribozyme fitness (log ratio)
1,A5U C34G,-6.92
2,A5U C11G C12U G61U A111C G113A,-4.88
3,A5C C64U G77U G110A,-3.72
4,A5C G42U G61C U78G C80A A84U C104G G113C A119U U125C U133A,-7.58
5,C4U U7C A43U C62G,-4.93
6,A5U G63C C85A C101A A118U,-2.94
7,C4U C11A,-1.89
8,C4G C11U C13U G47U C72G,-5.03
9,A6C A24G A26G U87G U112C A121G,-0.944
10,A5U A18G,-2.05
11,A5U A18U,-2.62
12,A5U U9C C31U G39A G120U,-3.67
13,A5U G39U,-1.13
14,A5G A6G G52A A83U,-2.69
15,C4U U9C A41U,-0.927
16,A5C A24G A27G,-4.69
17,C4G C89A,-2.63
18,C4G C64U,-2.5
19,A5G A83U,-1.18
20,A5U C15G C72G A119G A121U,0.915
21,C4G G69C G127A,-2.67
22,A5C G39C C70U G113A G120A C123A,-2.68
23,A5U C13A C28U C49U C56U G120C G135U,-5.49
24,A5C A46U A83C C86G C114A G117A,-6.85

row,Variant,polymerase ribozyme fitness (log ratio)
1,A5U G10U G45C G51A A118U G120A,-2.81
2,A5U A121U,1.1
3,A5U C72A,-0.164
4,A5C C64U,-0.365
5,C4U U9A C82A,0.0858
6,A5G G44C A74U U96G,-2.57
7,A5G U87C,-0.474
8,C4U C72A A91G G117C,-5.33
9,C4G U9G G23A G113C,-4.79
10,A5C U112A C114A,-1.8
11,A5G C82U,-0.0686
12,C4U C12A U59C A66C,-2.92
13,C4U C11A C13U A16C U30G C49A C64G C102G U112G C115A,-7.83
14,A5G G44A,-0.648
15,C4U G61A C89A,-1.4
16,A5G G51A C86G,-2.82
17,C4U G35C C72U G117C C123U U125A,-6.14
18,C4U A43C U125A,-3.11
19,C4G G44U U96A,-4.42
20,C4U C13U G19U A95G,-2.99
21,A5C U14A A46U,-4.39
22,A5U A91C U96G A121G,-0.932
23,A5U A46U G47C A50G C53U C86A C115G,-5.37
24,A5U G61A,-0.0027

row,Variant,polymerase ribozyme fitness (log ratio)
1,A5U G10A G36C G60C U78C C124U,-2.58
2,A5G C15U C70U C101U C124U,-0.0911
3,C4G A90U A100C C124U U132C,-4.88
4,A5G C13U G36C C62U C85A U112A G117U,-1.72
5,A5U G10A A37U U55G,-0.809
6,C4U C114A G128C,-4.42
7,A5U A83U G120U U129C,-1.35
8,A5U A29U C94U,-2.08
9,A5C U106A,-0.572
10,A5C G107A,-5.67
11,A5G G10A C72A A91U,-1.75
12,A5G A18U G42U G52C G69C,-3.05
13,A5G C12G G42U,-0.303
14,A5U G71U,-0.497
15,A5U C73A G122A U126G,-2.29
16,C4G G61C,-2.88
17,C4G G39A C40U G93A C102A,-3.57
18,A5G C13G A37G,-1.28
19,C4G U112C,-0.0354
20,C4G U112A,-0.309
21,A5G C8U A95C,-0.636
22,C4U C8A C12U C79G,-1.25
23,A5U A6U A46C C104U C123A,0.565
24,A5C C62U C85U C123A,-1.09

row,Variant,polymerase ribozyme fitness (log ratio)
1,C4G G69A,-2.97
2,C4U A100U G117U,-4.99
3,A5C A6U A50U C56U A121U,1.17
4,A5C C13U G44C G48U C115U,-3.4
5,A5U A37U U55A C123A,0.562
6,A5U U54C G60A U112C,1.52
7,C4U C72A A100U,-1.48
8,C4U A18U,-2.35
9,C4G C8G A26G G71A G120U,-1.19
10,C4G G10U A18G U59G A83C U87A,-4.53
11,A5C C8G A37U U38C A43C G57A G110A C124U,-5.51
12,C4G A26G U78C C99U C114G U132C,-5.4
13,A5G G77U G113U G122C,-3.27
14,A5U C11G C56U,-0.378
15,C4U C34G G57A U67C G69A C124U G127C,-6.05
16,C4G C124A,0.669
17,A5G C94A U129G,-1.49
18,A5C C73A,-0.312
19,A6C A26U C62U,-2.91
20,C4U U14A,-2.88
21,A5U G60C C124U,-0.742
22,A5C A37G C88A,-3.94
23,C4U G42A C114G,-3.21
24,A5G C22A A119G,-4.13

row,Variant,polymerase ribozyme fitness (log ratio)
1,A5C A24G U87C,-3.15
2,C4U C13A A46U G52U C73A,-4.74
3,A5C C73G C102A,-3.71
4,A5U C12U,0.00871
5,C4U C15U,-1.62
6,A5C C76U,-0.646
7,A5U C86A,-0.495
8,A5C C8U C34A C79U C101G,-3.49
9,C4U G57A G61A,-0.861
10,A6C A16C G44C,-3.74
11,C4G U9C A43G G47A C70U,-4.92
12,C4G G44C,-2.96
13,A5C C34U G63C U129G,-4.67
14,C4U U112C,1.38
15,A5U G39C A105U,-3.56
16,A5C C89U,-0.689
17,C4U C70A,-2.42
18,C4U C70U,-0.878
19,A5C U7G U54A C72U G110C,-4.62
20,A5G G60C,0.0339
21,A5G C53A G61A C101U,0.0588
22,C4G U38A A95U G127C,-0.148
23,C4U C11U C104U C115A,-2.94
